From publication doi:10.1101/2021.08.20.457084
“And” between values parts separate entries of the source, which are not always exact repeats. Equal entries are not always repeated.

How the values were obtained:
[1] = target: glutamine synthetase CsGSIb from Camellia sinensis, wild type (Camellia sinensis); assay: SEC-MALS
[2] = target: glutamine synthetase CsGSIb from Camellia sinensis, wild type (Camellia sinensis); assay: cryo-EM structure
[3] = target: glutamine synthetase CsGSIb from Camellia sinensis, wild type (Camellia sinensis); assay: negative-stain electron microscopy
[4] = target: glutamine synthetase CsGSIb from Camellia sinensis, wild type (Camellia sinensis); assay: cryo-EM structure; remark: listed apart in the source
[5] = target: glutamine synthetase CsGSIb from Camellia sinensis, wild type (Camellia sinensis); assay: AUC
[6] = target: CsGSIb EVK138DIQ mutant (Camellia sinensis); assay: SEC-MALS
[7] = target: CsGSIb EVK138DIQ mutant (Camellia sinensis); assay: AUC
[8] = target: CsGSIb I143L mutant (Camellia sinensis); assay: SEC-MALS
[9] = target: CsGSIb I143L mutant (Camellia sinensis); assay: AUC
[10] = target: glutamine synthetase GmGSβ2 from Glycine max (Glycine max); assay: SEC-MALS
[11] = target: glutamine synthetase GmGSβ2 from Glycine max (Glycine max); assay: cryo-EM structure
[12] = target: glutamine synthetase GmGSβ2 from Glycine max (Glycine max); assay: negative-stain electron microscopy

With “glutamine synthetase CsGSIb from Camellia sinensis, wild type (enzyme)” the percent of the protein in the decameric state [1] was 18%, the percent of the protein in the pentameric state [1] was 82% and the stoichiometry N [1] was 5 and 10. The stoichiometry N [2] was 10, the stoichiometry N [3] was 5 and 10 and the stoichiometry N [4] was 5. The Kd [5] was 270 nM and the stoichiometry N [5] was 10 and 5.
Substance CsGSIb EVK138DIQ mutant (enzyme) has a percent of the protein in the decameric state [6] of 72%, a stoichiometry N [6] of 10 and a Kd [7] of 40 nM.
Substance CsGSIb I143L mutant (enzyme) has a percent of the protein in the decameric state [8] greater than 95%, a stoichiometry N [8] of 10 and a Kd [9] of 10 nM.
For “glutamine synthetase GmGSβ2 from Glycine max (enzyme)”, the stoichiometry N [10] was 10, the stoichiometry N [11] was 10 and the stoichiometry N [12] was 10.
